In the supplement of paper PMC11502859:

Tested on: HEK293T
Experiment: median enrichment of reporter reads in eGFP-reduced (low/intermediate) vs eGFP-high sorted cells (eGFP-extension fusion abundance) (ratio); higher = stronger loss of eGFP-fusion protein abundance (more destabilising extension)
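Further: lentiviral eGFP-IRES-mCherry reporter pool sorted by FACS 96 h post-transduction, gated on mCherry-high cells, Illumina read counts normalized per million, median across four biological replicates.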

| Substance | median enrichment |
| --- | --- |
| SNSLRLAAPLGFLPCRTCLEVLPGGGGRGRLDLLS [AQP6] | 3.45 |
| SNTAFNWELETH [PREPL] | 0.178 |
| SNVIPLKRKMNNTLN [HRG] | 0.435 |
| SNWGAFSPEQRGPRHAVERLHLPPFPGQQD [COX14] | 0.854 |
| SPAPHHPQEHSTHHRQPLETSYMSLGAEREVPSPCRTRSCMCLTQVWTGGHLGAGQGHPSLHIT [RABEPK] | 7.59 |
| SPARRPSQRVTRPRGRTDSSDSPQ [EPS8L1] | 0.338 |
| SPELTAQSVDRASVRRHRERPGGSLSMDSQTAGEHLGQPPEGPLLDPRENLLALAVILE [ICOSLG] | 2.2 |
| SPERSQDPSRQHQLTDALVVPPSSPDCARSAVPSSGHLSSLWVPPHPSPC [RBP5] | 3.81 |
| SPF [SDHD] | 0.337 |
| SPGEKL [ZNF322] | 0.169 |
| SPHPAPPPPRPTRRPPDSSPGASSATPSLHPWGPSPPACTEQGLGVSWEA [ITGB4] | 0.621 |
| SPIQKFFLILFHLPISC [TRIO] | 7.34 |
| SPLL [PIK3C2G] | 0.449 |
| SPPGPSPGSGTLVPNPERSALLP [VPS35L] | 0.894 |
| SPQDQGKEDGRTGAKLVGGRGGGGRDDRPWMCPQGPRSEVSTVLPARAPVPPLAATPSPIISFAPRLLRGAPVLAPAPTSAPD [FOXP3] | 1.18 |
| SPQGRAATRRDMPGRGQDKMQTFFFF [APOL1] | 1.16 |
| SPRSWILQCINKRSQAGFISETIN [SGCD] | 39.2 |
| SPSASSRKNKKSRTWQVFSICCKYVY [FBXL13] | 8.34 |
| SPSDYIFNTTPPTPSWVRVSPVCPRPIKSTCHC [GPS2] | 5.9 |
| SPWGGGKG [C6orf47] | 1.46 |
| SPWSLVPGARASPPFHQPHRPLRGWSPLPGHGGRIPLGWSRLEKLLCQVCSLSAIVTSLPRGGDHITKRNSPFSKG [TCF21] | 3.11 |
| SPYPVPRCTNRWGPAPFLPGPHGPLSQEPRPLTSCPLEMVQHSGIYHPHLGPLQPPIKG [MYH14] | 5.6 |

| Substance | median enrichment |
| --- | --- |
| SPYRKAGRL [BCKDHB] | 19.5 |
| SQAGMSPGSLARVGPQ [TXN2] | 0.38 |
| SQDLVGGTGNWGWEGGNKDIWPS [RNF25] | 1.76 |
| SQESRASLPRIAFIPKFAWK [CMBL] | 2.33 |
| SQFNLKFLISPTTIY [TSEN2] | 8.83 |
| SQGGTTQAPWAPRERGGIRAGQPPGCRCQEQSQAQVAPAACPVPFPKAPLHIEGRKREFRQLHSPFTPNPVFYSPEKRRESHE [STARD8] | 1.09 |
| SQKHVHFGKQACILPVQYLHSTDGTVWRSTFSYFCESIHVGPVSRICTFVPSTVTANLSV [ARHGEF3] | 10.6 |
| SQL [AMBN] | 0.898 |
| SQPSPPSPGAAWGGKSCSLRRAQLAGAVPGHGRFPVTHSLRKPGVIGHLAGQRSWGWF [CLCN6] | 3.27 |
| SQREENILVLFFFQKKRKIKEIYPLLPLHLSQ [SLITRK3] | 40.1 |
| SQSG [PARD6A] | 1.41 |
| SRATGPQQCEGSLAAHPAAGAQPLPGMRLSADGETATQSFGLCVCVCVCVCVCAHPRVPVCVRILPPGAEVPWVSPLLCNGLL [FGFR3] | 6.49 |
| SRDLDLGGVVRSSGRVPPGSPGEYMSPALGGVCYWPPTFLPRWTVLL [OXCT2] | 3.71 |
| SREDVKCLSVNCSAVSKQSSNLQY [RIT1] | 0.34 |
| SREHENGSMTLPDTDAT [TP53] | 0.734 |
| SRETVGG [JUN] | 3.4 |
| SRFCHVNVSLSGLQLRRKRRKT [SMIM11A] | 5.41 |
| SRGSHAPPPPCHSLGPHLPLP [SDC1] | 0.282 |
| SRHIQVSFHHFIYKGDQCHRRVPEEMRSQGLS [MPV17L] | 4.12 |
| SRKFLRCCHLLEMRFVLCLNGLFFKKTKNQMKEHSWGFLFVCVCMCKLMSNCICRSVIVLYCVNYFHCGYFSR [U2SURP] | 5.89 |
| SRL [ICAM4] | 0.718 |
